Paper PMC9474812, “Structure of the membrane-bound formate hydrogenlyase complex from Escherichia coli” (Nature Communications, 2022)

T1: HycC (Escherichia coli, UniProt P16429 1-608)
T1 construct: Native subunit from the hycABCDEFGHI operon, not tagged; also called antiporter-like subunit HycC; source: endogenous, E. coli strain MG059e1, anaerobic fermentation; co-purified with His10-HycE from LMNG-solubilised membranes (HisTrap, SEC)
T1 sequence (looked up): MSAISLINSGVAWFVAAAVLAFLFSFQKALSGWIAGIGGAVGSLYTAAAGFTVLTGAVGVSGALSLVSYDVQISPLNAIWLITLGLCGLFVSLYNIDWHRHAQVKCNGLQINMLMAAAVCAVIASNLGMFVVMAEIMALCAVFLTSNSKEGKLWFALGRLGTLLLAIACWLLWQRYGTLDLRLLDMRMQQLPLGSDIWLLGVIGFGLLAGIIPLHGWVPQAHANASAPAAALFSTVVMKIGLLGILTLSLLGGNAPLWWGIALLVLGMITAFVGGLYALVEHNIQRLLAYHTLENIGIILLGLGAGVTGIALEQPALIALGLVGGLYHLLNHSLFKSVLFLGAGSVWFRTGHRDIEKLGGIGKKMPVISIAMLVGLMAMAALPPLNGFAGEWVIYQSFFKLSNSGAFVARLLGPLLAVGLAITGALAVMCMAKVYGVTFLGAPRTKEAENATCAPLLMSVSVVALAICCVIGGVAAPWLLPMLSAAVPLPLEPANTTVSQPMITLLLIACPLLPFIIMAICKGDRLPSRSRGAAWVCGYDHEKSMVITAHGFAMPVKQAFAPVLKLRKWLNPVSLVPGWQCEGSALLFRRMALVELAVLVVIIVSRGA

T2: formate dehydrogenase H (FdhF) (Escherichia coli, UniProt P07658 1-715, metal-coordinating selenocysteine (Sec); position not given)
T2 construct: Formate dehydrogenase H, FdhF, subunit of the E. coli formate hydrogenlyase (FHL) complex; carries Mo(MGD)2 and [4Fe4S] cluster A1; Native subunit, not tagged; also called formate dehydrogenase subunit FdhF; source: endogenous, E. coli strain MG059e1, anaerobic fermentation; co-purified with His10-HycE from LMNG-solubilised membranes (HisTrap, SEC)
T2 sequence (looked up): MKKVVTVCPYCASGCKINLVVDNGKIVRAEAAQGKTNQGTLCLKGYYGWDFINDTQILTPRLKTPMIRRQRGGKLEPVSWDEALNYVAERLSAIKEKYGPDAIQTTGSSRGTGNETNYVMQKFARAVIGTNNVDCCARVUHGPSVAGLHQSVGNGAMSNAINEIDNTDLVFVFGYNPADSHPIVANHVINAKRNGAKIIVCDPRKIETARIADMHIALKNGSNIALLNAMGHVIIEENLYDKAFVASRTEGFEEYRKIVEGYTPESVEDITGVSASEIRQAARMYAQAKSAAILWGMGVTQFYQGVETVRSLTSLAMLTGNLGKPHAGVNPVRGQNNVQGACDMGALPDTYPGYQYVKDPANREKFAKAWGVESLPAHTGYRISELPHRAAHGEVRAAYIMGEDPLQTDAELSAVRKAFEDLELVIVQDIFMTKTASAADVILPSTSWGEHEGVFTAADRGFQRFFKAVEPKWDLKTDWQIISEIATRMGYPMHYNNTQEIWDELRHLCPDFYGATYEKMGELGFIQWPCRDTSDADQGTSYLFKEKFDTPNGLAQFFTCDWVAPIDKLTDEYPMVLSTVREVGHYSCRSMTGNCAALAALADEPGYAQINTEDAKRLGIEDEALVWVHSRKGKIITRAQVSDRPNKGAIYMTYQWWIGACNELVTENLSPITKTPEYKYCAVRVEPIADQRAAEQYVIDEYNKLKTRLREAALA

B1: HycD (natural protein, Escherichia coli, UniProt P16430 1-307, looked up)
chain: MSVLYPLIQALVLFAVAPLLSGITRVARARLHNRRGPGVLQEYRDIIKLLGRQSVGPDASGWVFRLTPYVMVGVMLTIATALPVVTVGSPLPQLGDLITLLYLFAIARFFFAISGLDTGSPFTAIGASREAMLGVLVEPMLLLGLWVAAQVAGSTNISNITDTVYHWPLSQSIPLVLALCACAFATFIEMGKLPFDLAEAEQELQEGPLSEYSGSGFGVMKWGISLKQLVVLQMFVGVFIPWGQMETFTAGGLLLALVIAIVKLVVGVLVIALFENSMARLRLDITPRITWAGFGFAFLAFVSLLAA
notes: HycD, integral membrane subunit (ND1 homolog) of the E. coli formate hydrogenlyase (FHL) complex, eight TMHs; Native subunit from the hycABCDEFGHI operon, not tagged; also called membrane-anchor subunit HycD (ND1 homolog); source: endogenous, E. coli strain MG059e1, anaerobic fermentation; co-purified with His10-HycE from LMNG-solubilised membranes (HisTrap, SEC)
B2: HycE, the large hydrogenase subunit of FHL, with an internal 10x His affinity tag (enzyme, Escherichia coli, UniProt P16431 1-537, looked up)
chain: MSEEKLGQHYLAALNEAFPGVVLDHAWQTKDQLTVTVKVNYLPEVVEFLYYKQGGWLSVLFGNDERKLNGHYAVYYVLSMEKGTKCWITVRVEVDANKPEYPSVTPRVPAAVWGEREVRDMYGLIPVGLPDERRLVLPDDWPDELYPLRKDSMDYRQRPAPTTDAETYEFINELGDKKNNVVPIGPLHVTSDEPGHFRLFVDGENIIDADYRLFYVHRGMEKLAETRMGYNEVTFLSDRVCGICGFAHSTAYTTSVENAMGIQVPERAQMIRAILLEVERLHSHLLNLGLACHFTGFDSGFMQFFRVRETSMKMAEILTGARKTYGLNLIGGIRRDLLKDDMIQTRQLAQQMRREVQELVDVLLSTPNMEQRTVGIGRLDPEIARDFSNVGPMVRASGHARDTRADHPFVGYGLLPMEVHSEQGCDVISRLKVRINEVYTALNMIDYGLDNLPGGPLMVEGFTYIPHRFALGFAEAPRGDDIHWSMTGDNQKLYRWRCRAATYANWPTLRYMLRGNTVSDAPLIIGSLDPCYSCTDR
notes: HycE, large [NiFe] hydrogenase subunit of the E. coli formate hydrogenlyase (FHL) complex; His10 tag placed after Gly-83; also called [NiFe] hydrogenase HycE; Hyd-3 large subunit; source: purified from LMNG-solubilised membranes (HisTrap, SEC); not shown: His10, internal (after residue 83), kept
B3: HycF (natural protein, Escherichia coli, UniProt P16432 1-180, looked up)
chain: MFTFIKKVIKTGTATSSYPLEPIAVDKNFRGKPEQNPQQCIGCAACVNACPSNALTVETDLATGELAWEFNLGHCIFCGRCEEVCPTAAIKLSQEYELAVWKKEDFLQQSRFALCNCRVCNRPFAVQKEIDYAIALLKHNGDSRAENHRESFETCPECKRQKCLVPSDRIELTRHMKEAI
notes: HycF, ferredoxin-like subunit (NDUFS8 homolog) of the E. coli formate hydrogenlyase (FHL) complex; coordinates [4Fe4S] clusters F1, F2 and a metal ion at Cys117, Cys120, Cys155, Cys158; Native subunit from the hycABCDEFGHI operon, not tagged; also called ferredoxin-like protein HycF; source: endogenous, E. coli strain MG059e1, anaerobic fermentation; co-purified with His10-HycE from …
B4: HycB (natural protein, Escherichia coli, UniProt P0AAK1 1-203, looked up)
chain: MNRFVIADSTLCIGCHTCEAACSETHRQHGLQSMPRLRVMLNEKESAPQLCHHCEDAPCAVVCPVNAITRVDGAVQLNESLCVSCKLCGIACPFGAIEFSGSRPLDIPANANTPKAPPAPPAPARVSTLLDWVPGIRAIAVKCDLCSFDEQGPACVRMCPTKALHLVDNTDIARVSKRKRELTFNTDFGDLTLFQQAQSGEAK
notes: HycB, ferredoxin-like subunit of the E. coli formate hydrogenlyase (FHL) complex; coordinates [4Fe4S] clusters B1-B4; Native subunit from the hycABCDEFGHI operon, not tagged; also called ferredoxin-like protein HycB; source: endogenous, E. coli strain MG059e1, anaerobic fermentation; co-purified with His10-HycE from LMNG-solubilised membranes (HisTrap, SEC)

Assays:
HycC [1] = biological target: T1, HycC; assay: cryo-EM structure; anaerobically isolated FHL (hexameric HycBCDEFG) in LMNG, grids prepared in the anaerobic chamber with fluorinated fos-choline-8, 2.6 Å; conditions: both partners purified
[2] = biological target: B2; assay: co-purification (His-tag affinity, then SEC); aerobic isolation: membranes solubilised with 0.5% LMNG, HisTrap FF by the His10 tag in HycE, Superdex 200 Increase; 20 mM Tris, 200 mM NaCl, 1 mM DTT, 0.005% LMNG, pH 7.5; conditions: partners not purified
HycC [3] = biological target: T1, HycC; assay: as above; conditions: partners not purified
HycB = biological target: B4; assay: cryo-EM structure; anaerobically isolated FHL (hexameric HycBCDEFG) in LMNG, grids prepared in the anaerobic chamber with fluorinated fos-choline-8, 2.6 Å; conditions: both partners purified
[4] = biological target: T2, formate dehydrogenase H (FdhF); assay: cryo-EM structure; aerobically isolated FHL (heptameric FdhF-HycBCDEFG) in LMNG, single-particle analysis, 3.4 Å (focused refinements 3.0-3.4 Å); conditions: both partners purified
[5] = biological target: B2; assay: co-purification (His-tag affinity, then SEC); anaerobic isolation: as the aerobic one but in an anaerobic chamber (<1 ppm O2, 3-4% hydrogen in nitrogen), anaerobic buffers, lysis by sonication (also bead-beating or B-PER); conditions: partners not purified

Binder: B1
- binding result (HycC [1]): binds
- binding result [2]: binds

Binder: B2
- binding result (HycC [3]): binds

Binder: B3
- binding result (HycB): binds
- binding result [4]: binds

Binder: B4
- binding result [4]: binds
- binding result [5]: binds
